Experiments:
Assay in all cases: NMR titration
cyclophilin A = cyclophilin A (UniProt P62937 1-165)
CypA^V6TV29L = CypA^V6TV29L (UniProt P62937 1-165, V6T | V29L)
CypA^V6A = CypA^V6A (UniProt P62937 1-165, V6A)
CypA^V6I = CypA^V6I (UniProt P62937 1-165, V6I)
CypA^V6T = CypA^V6T (UniProt P62937 1-165, V6T)
CypA^V29A = CypA^V29A (UniProt P62937 1-165, V29A)
CypA^V6L = CypA^V6L (UniProt P62937 1-165, V6L)
CypA^V29L = CypA^V29L (UniProt P62937 1-165, V29L)
CypA^V29T = CypA^V29T (UniProt P62937 1-165, V29T)
CypA^V6S = CypA^V6S (UniProt P62937 1-165, V6S)
Chain of CypA^V6S (P62937 whole entry V6S): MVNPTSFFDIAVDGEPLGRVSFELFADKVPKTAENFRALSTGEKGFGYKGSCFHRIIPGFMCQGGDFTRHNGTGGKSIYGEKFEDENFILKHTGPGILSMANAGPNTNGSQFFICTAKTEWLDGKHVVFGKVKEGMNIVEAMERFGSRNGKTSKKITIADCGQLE

Chain of CypA^V6T (P62937 whole entry V6T): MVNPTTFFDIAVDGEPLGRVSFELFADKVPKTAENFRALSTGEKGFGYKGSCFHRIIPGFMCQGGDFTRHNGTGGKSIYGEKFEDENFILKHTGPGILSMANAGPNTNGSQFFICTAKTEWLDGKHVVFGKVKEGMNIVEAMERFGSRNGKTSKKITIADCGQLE
Chain of CypA^V6TV29L (P62937 whole entry V6T/V29L): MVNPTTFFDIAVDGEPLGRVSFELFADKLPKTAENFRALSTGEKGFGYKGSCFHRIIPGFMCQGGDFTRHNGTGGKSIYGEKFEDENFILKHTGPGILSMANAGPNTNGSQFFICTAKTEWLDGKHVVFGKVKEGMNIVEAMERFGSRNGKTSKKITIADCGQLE
Chain of cyclophilin A (P62937 whole entry): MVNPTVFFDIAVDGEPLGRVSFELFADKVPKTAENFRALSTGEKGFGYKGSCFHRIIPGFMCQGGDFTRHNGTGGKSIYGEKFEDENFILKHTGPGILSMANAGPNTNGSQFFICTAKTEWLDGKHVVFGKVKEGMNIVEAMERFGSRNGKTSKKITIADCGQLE
Chain of CypA^V29T (P62937 whole entry V29T): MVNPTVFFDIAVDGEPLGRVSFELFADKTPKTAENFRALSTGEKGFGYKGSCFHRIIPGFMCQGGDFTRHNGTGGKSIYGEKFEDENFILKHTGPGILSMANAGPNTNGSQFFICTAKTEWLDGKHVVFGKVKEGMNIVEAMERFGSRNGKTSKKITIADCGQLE
Chain of CypA^V6L (P62937 whole entry V6L): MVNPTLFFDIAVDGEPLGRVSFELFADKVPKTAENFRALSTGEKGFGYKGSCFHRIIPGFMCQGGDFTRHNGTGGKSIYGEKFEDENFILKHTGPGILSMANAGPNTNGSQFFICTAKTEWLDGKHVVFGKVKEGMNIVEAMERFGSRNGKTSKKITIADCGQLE
Chain of CypA^V29A (P62937 whole entry V29A): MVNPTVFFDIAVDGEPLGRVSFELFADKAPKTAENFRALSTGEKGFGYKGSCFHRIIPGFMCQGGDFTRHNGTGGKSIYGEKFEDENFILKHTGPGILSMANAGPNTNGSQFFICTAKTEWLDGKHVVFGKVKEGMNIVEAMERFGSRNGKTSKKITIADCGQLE
Chain of CypA^V29L (P62937 whole entry V29L): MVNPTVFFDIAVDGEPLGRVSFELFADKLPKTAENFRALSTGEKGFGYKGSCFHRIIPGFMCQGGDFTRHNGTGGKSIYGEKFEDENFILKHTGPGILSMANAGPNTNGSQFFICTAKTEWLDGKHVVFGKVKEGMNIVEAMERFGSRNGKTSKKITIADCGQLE
Chain of CypA^V6A (P62937 whole entry V6A): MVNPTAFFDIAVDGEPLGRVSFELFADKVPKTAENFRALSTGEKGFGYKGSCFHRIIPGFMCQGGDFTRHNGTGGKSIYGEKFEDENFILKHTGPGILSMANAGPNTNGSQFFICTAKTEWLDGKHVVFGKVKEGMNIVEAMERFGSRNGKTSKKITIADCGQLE
Chain of CypA^V6I (P62937 whole entry V6I): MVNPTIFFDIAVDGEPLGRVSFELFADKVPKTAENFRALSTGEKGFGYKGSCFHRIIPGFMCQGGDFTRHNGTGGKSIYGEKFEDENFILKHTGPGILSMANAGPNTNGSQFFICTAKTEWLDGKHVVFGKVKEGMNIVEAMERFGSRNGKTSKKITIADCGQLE

Kd (cyclophilin A): 76 µM
Kd (CypA^V6TV29L): 37 µM
Kd (CypA^V6A): 82 µM
Kd (CypA^V6I): 86 µM
Kd (CypA^V6T): 48 µM
Kd (CypA^V29A): 57 µM
Kd (CypA^V6L): 69 µM
Kd (CypA^V29L): 38 µM
Kd (CypA^V29T): 73 µM
Kd (CypA^V6S): 65 µM
Binder: GSFGPDLRAGD [FGP peptide]

Reference: article PMC5336394 (Structure (London, England : 1993), 2017)
